Experimental data as given in the supplement of paper PMC10724198.
± gives the standard deviation of the averaged measurements.

System: Saccharomyces cerevisiae
Assay: protein stability index of tFT-peptide fusion (C-terminal peptide) (PSI (0-1 scale)); higher = more stable (slower turnover)
Settings: temperature: 30 C
Method: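 MPS profiling in S. cerevisiae of the yeast C-terminome library: the last 12 aa of each annotated ORF are fused to the C-terminus of a sfGFP-mCherry timer, after a GGGS linker. Cells are FACS-sorted into 8 mCherry/sfGFP bins and deep-sequenced. PSI runs from 0 (unstable) to 1 (stable); wild type and das1Δ backgrounds, two technical replicates each.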

[1] = genetic background: das1 deletion

Sequence	protein stability index [1]	protein stability index (genetic background: wild type)
LQSDKDLQSLLT [CUE1 C-terminal 12 aa]	0.698 ± 0.0011	0.683 ± 0.011
DNEGSRKMLKIE [CIN8 C-terminal 12 aa]	0.6613 ± 0.0033	0.662 ± 0.042
KRNFCPFHDAVF [PIB1 C-terminal 12 aa]	0.712 ± 0.01	0.716 ± 0.043
IDDINNDKWLVI [PSK1 C-terminal 12 aa]	0.725 ± 0.001	0.688 ± 0.041
KHKNYLSFNFTK [YLL065W C-terminal 12 aa]	0.698 ± 0.038	0.69 ± 0.012
VKKSNWSNYFKS [PCL2 C-terminal 12 aa]	0.6868 ± 0.0023	0.682 ± 0.033
VVQFLVNLVCHT [YGR114C C-terminal 12 aa]	0.4879 ± 0.0042	0.487 ± 0.011
ANSLDAIFLKSK [YNL150W C-terminal 12 aa]	0.6777 ± 0.0042	0.669 ± 0.021
KRHLTPAVELDY [PRP40 C-terminal 12 aa]	0.671 ± 0.008	0.6566 ± 0.001
AGSSKFLKGAKI [MRS1 C-terminal 12 aa]	0.707 ± 0.037	0.673 ± 0.0098
TGFFGKLKKLFK [CRP1 C-terminal 12 aa]	0.762 ± 0.0086	0.724 ± 0.0086
DDPDENTALLGA [YDR338C C-terminal 12 aa]	0.7076 ± 0.0037	0.711 ± 0.034
IYKYCCCCFCCC [YCK3 C-terminal 12 aa]	0.6598 ± 0.0038	0.594 ± 0.046
QIRSVFSGVYGG [ASP3-1 C-terminal 12 aa]	0.691 ± 0.013	0.689 ± 0.049
WSTFYYLCRKRE [CRG1 C-terminal 12 aa]	0.693 ± 0.014	0.701 ± 0.077
LLDGGDGDEDAV [GON7 C-terminal 12 aa]	0.6942 ± 0.002	0.7 ± 0.036
GLGDFGDRYYCV [FUR1 C-terminal 12 aa]	0.7105 ± 0.0059	0.697 ± 0.007
SHKGFFQKLGCC [YCK1 C-terminal 12 aa]	0.692 ± 0.0098	0.677 ± 0.01
SSKKNNKFRRIR [CST9 C-terminal 12 aa]	0.685 ± 0.019	0.714 ± 0.032
VLVFSWRHIFCF [YJL120W C-terminal 12 aa]	0.467 ± 0.026	0.179 ± 0.0033
TKEAKRRAMKKK [UME6 C-terminal 12 aa]	0.706 ± 0.028	0.677 ± 0.013

Sequence	protein stability index [1]	protein stability index (genetic background: wild type)
HKVIAVGRIACQ [SKI7 C-terminal 12 aa]	0.5897 ± 0.0016	0.611 ± 0.016
AVHSFNTPAVQS [COX1 C-terminal 12 aa]	0.6863 ± 0.0034	0.676 ± 0.019
SPPEEESQHGDV [SHB17 C-terminal 12 aa]	0.696 ± 0.022	0.75 ± 0.032
SDAVAEANDIDD [TOM20 C-terminal 12 aa]	0.673 ± 0.051	0.72 ± 0.047
VRKDYIALINQY [ADI1 C-terminal 12 aa]	0.6715 ± 0.0042	0.652 ± 0.01
LPRDSAMSAPDI [YMR085W C-terminal 12 aa]	0.7049 ± 0.001	0.7081 ± 0.0025
FPCAGSAMGSLT [YMR103C C-terminal 12 aa]	0.703 ± 0.011	0.684 ± 0.01
GIPNFKLKVTQI [GAB1 C-terminal 12 aa]	0.6896 ± 0.0036	0.706 ± 0.041
TLHDDRESKSED [CMK2 C-terminal 12 aa]	0.6829 ± 0.0059	0.694 ± 0.036
HCLSLCTIQKMI [YOR231C-A C-terminal 12 aa]	0.7075 ± 0.0048	0.159 ± 0.01
KNRRGNRSGYRR [THO1 C-terminal 12 aa]	0.703 ± 0.0025	0.689 ± 0.024
WKLYQDYLSGKV [YER134C C-terminal 12 aa]	0.695 ± 0.014	0.719 ± 0.08
EEAREEFENIAL [SMI1 C-terminal 12 aa]	0.679 ± 0.0096	0.645 ± 0.017
NNLNTNTSTTTQ [MIT1 C-terminal 12 aa]	0.682 ± 0.011	0.68 ± 0.065
LLEAFLRKEQKV [YGR174W-A C-terminal 12 aa]	0.596 ± 0.012	0.619 ± 0.019
LTVTRWKLQITG [YPR160W-A C-terminal 12 aa]	0.659 ± 0.013	0.4486 ± 0.0032
KHKSSSYANRDS [DUS3 C-terminal 12 aa]	0.6941 ± 0.00079	0.693 ± 0.026
SFSRIDCCLPDE [TDA5 C-terminal 12 aa]	0.72 ± 0.013	0.707 ± 0.051
KEFQNSDIADLY [SGV1 C-terminal 12 aa]	0.714 ± 0.01	0.686 ± 0.017
RLRAKSPYAWDD [YHK8 C-terminal 12 aa]	0.729 ± 0.0089	0.721 ± 0.053
ELSDLENKLGKK [RCF1 C-terminal 12 aa]	0.6843 ± 0.0062	0.6991 ± 0.0033

Sequence	protein stability index [1]	protein stability index (genetic background: wild type)
KDSKNGASTLTS [YSW1 C-terminal 12 aa]	0.691 ± 0.041	0.672 ± 0.018
QQPNQNQNQNSK [FIP1 C-terminal 12 aa]	0.738 ± 0.049	0.676 ± 0.019
NGLNWEVIEYHA [HRI1 C-terminal 12 aa]	0.724 ± 0.008	0.713 ± 0.042
ENVLNKEGVLQK [GIN4 C-terminal 12 aa]	0.682 ± 0.012	0.734 ± 0.047
TDCGLETEEIDI [RAD14 C-terminal 12 aa]	0.663 ± 0.025	0.6823 ± 0.0022
HIDIPDFSKWDV [SUL1 C-terminal 12 aa]	0.7412 ± 0.0047	0.718 ± 0.016
GTLVLGTYLLAQ [SHH3 C-terminal 12 aa]	0.612 ± 0.027	0.639 ± 0.037
ATEITPLLNIAE [VLD1 C-terminal 12 aa]	0.674 ± 0.018	0.773 ± 0.033
MSLMRKAYHFWC [BAP2 C-terminal 12 aa]	0.726 ± 0.024	0.619 ± 0.039
ICRVAIWSAERI [CAT5 C-terminal 12 aa]	0.693 ± 0.015	0.658 ± 0.034
KWQARQRGLQRF [PMP1 C-terminal 12 aa]	0.69535 ± 0.00066	0.704 ± 0.018
THMKPWYRRWFW [INA17 C-terminal 12 aa]	0.742 ± 0.012	0.718 ± 0.018
NLGYSKDQVFKF [MCR1 C-terminal 12 aa]	0.708 ± 0.0082	0.688 ± 0.039
ALEEALMDRLQF [ATG29 C-terminal 12 aa]	0.7094 ± 0.0057	0.6947 ± 0.0064
VGLLTAIIMSIM [PST1 C-terminal 12 aa]	0.576 ± 0.011	0.529 ± 0.021
TLVFDVELLKVN [FPR1 C-terminal 12 aa]	0.6084 ± 0.0029	0.251 ± 0.033
VQCVCFNVEMRL [YIL046W-A C-terminal 12 aa]	0.662 ± 0.015	0.676 ± 0.091
NKAPSWLLTALE [OCA1 C-terminal 12 aa]	0.6834 ± 0.0031	0.69 ± 0.027
ATSLSPNKASAS [YJL026C-A C-terminal 12 aa]	0.685 ± 0.015	0.6601 ± 0.0011
IKYNWERCFNGE [YDR521W C-terminal 12 aa]	0.71 ± 0.014	0.697 ± 0.04
YTSKSFSPASSE [YMR181C C-terminal 12 aa]	0.704 ± 0.031	0.668 ± 0.022

Sequence	protein stability index [1]	protein stability index (genetic background: wild type)
RLVRNVELSKEK [MTD1 C-terminal 12 aa]	0.708 ± 0.028	0.718 ± 0.062
QRTVKQEGNKGG [GZF3 C-terminal 12 aa]	0.712 ± 0.021	0.69986 ± 0.00047
GNISLLYSQGRL [RSC6 C-terminal 12 aa]	0.723 ± 0.013	0.714 ± 0.053
HKGSHFYIQLPI [YAL034C-B C-terminal 12 aa]	0.7079 ± 0.0061	0.677 ± 0.0077
QSQYPDVGIPAI [YAR023C C-terminal 12 aa]	0.7082 ± 0.0034	0.669 ± 0.011
LLEKLDIKDKKE [YVC1 C-terminal 12 aa]	0.661 ± 0.018	0.703 ± 0.024
DQLEDTSSHDEL [MPD2 C-terminal 12 aa]	0.7476 ± 0.0003	0.7 ± 0.025
TKCSLKNSISLT [VAB2 C-terminal 12 aa]	0.677 ± 0.012	0.733 ± 0.086
NSTSSKDKKKKN [SES1 C-terminal 12 aa]	0.707 ± 0.008	0.7314 ± 0.0025
GPSIIMTLYLTL [ARE1 C-terminal 12 aa]	0.496 ± 0.021	0.5045 ± 0.0024
LYEEHQQMLDKQ [IPI3 C-terminal 12 aa]	0.7227 ± 0.0019	0.726 ± 0.088
IKQRELNAADKC [MAL11 C-terminal 12 aa]	0.696 ± 0.0096	0.6741 ± 0.0048
RYRLEKVIGKRW [SPO20 C-terminal 12 aa]	0.704 ± 0.03	0.676 ± 0.022
NPTIGRDSKKAV [PEX30 C-terminal 12 aa]	0.694 ± 0.011	0.702 ± 0.015
VNPKAKRPSNEK [NOP2 C-terminal 12 aa]	0.712 ± 0.044	0.754 ± 0.042
DIYEIRGTALDD [DSL1 C-terminal 12 aa]	0.6986 ± 0.0054	0.699 ± 0.052
KIYMANAPPPPV [VPS54 C-terminal 12 aa]	0.706 ± 0.013	0.668 ± 0.02
HKSLKLAKKDKK [AGE1 C-terminal 12 aa]	0.6837 ± 0.0037	0.738 ± 0.13
YIKEAQSACNDV [COS12 C-terminal 12 aa]	0.692 ± 0.018	0.664 ± 0.03
